Source: patent US11833164B2, “Methods of treating Fabry disease in patients having a mutation in the GLA gene” (Amicus Therapeutics, Inc., priority 2019, dated 2023)

Test system: mutant form of α-Gal A expressed in HEK-293 cells
Assay: HEK assay (GLP HEK / Migalastat Amenability Assay): α-Gal A activity in lysates of transiently transfected HEK-293 cells incubated with or without 10 μM migalastat
Format: cell-based, human
Settings: for Absolute increase (% WT): 10 μM migalastat versus baseline; for Relative increase: 10 μM migalastat α-Gal A activity relative to baseline; for 10 μM migalastat α-Gal A activity (% WT): 5 days; for 10 μM migalastat α-Gal A activity (% WT) / Baseline α-Gal A activity (% WT): percentage of baseline wild-type α-Gal A activity; for 10 μM migalastat α-Gal A activity (% WT) / Baseline α-Gal A activity (% WT) / Baseline α-Gal A activity / 10 μM migalastat α-Gal A activity: mean ± SEM; for Baseline α-Gal A activity (% WT): absence of migalastat; for Baseline α-Gal A activity / 10 μM migalastat α-Gal A activity: lysates of HEK-293 cells transfected with the mutant form; for Baseline α-Gal A activity: incubated 5 days in the absence of migalastat; for 10 μM migalastat α-Gal A activity: incubated 5 days with 10 μM migalastat
Summary of the method: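 HEK-293 cells transiently transfected with mutant α-Gal A and incubated with or without 10 μM migalastat; lysate activity given as nmol free 4-MU released per mg protein per hour. Values are mean±SEM.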

B1: K185M (protein)
chain: MQLRNPELHLGCALALRFLALVSWDIPGARALDNGLARTPTMGWLHWERFMCNLDCQEEPDSCISEKLFMEMAELMVSEGWKDAGYEYLCIDDCWMAPQRDSEGRLQADPQRFPHGIRQLANYVHSKGLKLGIYADVGNKTCAGFPGSFGYYDIDAQTFADWGVDLLKFDGCYCDSLENLADGYMHMSLALNRTGRSIVYSCEWPLYMWPFQKPNYTEIRQYCNHWRNFADIDDSWKSIKSILDWTSFNQERIVDVAGPGGWNDPDMLVIGNFGLSWNQQVTQMALWAIMAAPLFMSNDLRHISPQAKALLQDKDVIAINQDPLGKQGYQLRQGDNFEVWERPLSGLAWAVAMINRQEIGGPRSYTIAVASLGKGVACNPACFITQLLPVKRKLGFYEWTSRLRSHINPTGTVLLQLENTMQMSLKDLL
Absolute increase (% WT): 27.8 % WT
Relative increase: 1.3
10 μM migalastat α-Gal A activity (% WT): 102.9 ± 9 % WT
Baseline α-Gal A activity (% WT): 75.1 ± 4.6 % WT
Baseline α-Gal A activity: 33484 ± 2151 nmol/mg/h
10 μM migalastat α-Gal A activity: 44387 ± 2696 nmol/mg/h

B2: K185N (protein)
chain: MQLRNPELHLGCALALRFLALVSWDIPGARALDNGLARTPTMGWLHWERFMCNLDCQEEPDSCISEKLFMEMAELMVSEGWKDAGYEYLCIDDCWMAPQRDSEGRLQADPQRFPHGIRQLANYVHSKGLKLGIYADVGNKTCAGFPGSFGYYDIDAQTFADWGVDLLKFDGCYCDSLENLADGYNHMSLALNRTGRSIVYSCEWPLYMWPFQKPNYTEIRQYCNHWRNFADIDDSWKSIKSILDWTSFNQERIVDVAGPGGWNDPDMLVIGNFGLSWNQQVTQMALWAIMAAPLFMSNDLRHISPQAKALLQDKDVIAINQDPLGKQGYQLRQGDNFEVWERPLSGLAWAVAMINRQEIGGPRSYTIAVASLGKGVACNPACFITQLLPVKRKLGFYEWTSRLRSHINPTGTVLLQLENTMQMSLKDLL
Absolute increase (% WT): 22.5 % WT
Relative increase: 12.7
10 μM migalastat α-Gal A activity (% WT): 24.4 ± 1.9 % WT
Baseline α-Gal A activity (% WT): 1.9 ± 0.1 % WT
Baseline α-Gal A activity: 833 ± 38 nmol/mg/h
10 μM migalastat α-Gal A activity: 10540 ± 618 nmol/mg/h

B3: K185Q (protein)
chain: MQLRNPELHLGCALALRFLALVSWDIPGARALDNGLARTPTMGWLHWERFMCNLDCQEEPDSCISEKLFMEMAELMVSEGWKDAGYEYLCIDDCWMAPQRDSEGRLQADPQRFPHGIRQLANYVHSKGLKLGIYADVGNKTCAGFPGSFGYYDIDAQTFADWGVDLLKFDGCYCDSLENLADGYQHMSLALNRTGRSIVYSCEWPLYMWPFQKPNYTEIRQYCNHWRNFADIDDSWKSIKSILDWTSFNQERIVDVAGPGGWNDPDMLVIGNFGLSWNQQVTQMALWAIMAAPLFMSNDLRHISPQAKALLQDKDVIAINQDPLGKQGYQLRQGDNFEVWERPLSGLAWAVAMINRQEIGGPRSYTIAVASLGKGVACNPACFITQLLPVKRKLGFYEWTSRLRSHINPTGTVLLQLENTMQMSLKDLL
Absolute increase (% WT): 30.9 % WT
Relative increase: 1.7
10 μM migalastat α-Gal A activity (% WT): 74.5 ± 2.9 % WT
Baseline α-Gal A activity (% WT): 43.6 ± 2.2 % WT
Baseline α-Gal A activity: 14992 ± 947 nmol/mg/h
10 μM migalastat α-Gal A activity: 25543 ± 1463 nmol/mg/h
